Experimental data published in PMC12430004.
Read-outs that look alike come from different tables or passages of the source.

Columns and labels:
Assay in all cases: EMSA
hPNPase Q387R [1] = target: T1, hPNPase Q387R (Homo sapiens, UniProt Q8TCS8 46-783, Q387R)
T1 sequence: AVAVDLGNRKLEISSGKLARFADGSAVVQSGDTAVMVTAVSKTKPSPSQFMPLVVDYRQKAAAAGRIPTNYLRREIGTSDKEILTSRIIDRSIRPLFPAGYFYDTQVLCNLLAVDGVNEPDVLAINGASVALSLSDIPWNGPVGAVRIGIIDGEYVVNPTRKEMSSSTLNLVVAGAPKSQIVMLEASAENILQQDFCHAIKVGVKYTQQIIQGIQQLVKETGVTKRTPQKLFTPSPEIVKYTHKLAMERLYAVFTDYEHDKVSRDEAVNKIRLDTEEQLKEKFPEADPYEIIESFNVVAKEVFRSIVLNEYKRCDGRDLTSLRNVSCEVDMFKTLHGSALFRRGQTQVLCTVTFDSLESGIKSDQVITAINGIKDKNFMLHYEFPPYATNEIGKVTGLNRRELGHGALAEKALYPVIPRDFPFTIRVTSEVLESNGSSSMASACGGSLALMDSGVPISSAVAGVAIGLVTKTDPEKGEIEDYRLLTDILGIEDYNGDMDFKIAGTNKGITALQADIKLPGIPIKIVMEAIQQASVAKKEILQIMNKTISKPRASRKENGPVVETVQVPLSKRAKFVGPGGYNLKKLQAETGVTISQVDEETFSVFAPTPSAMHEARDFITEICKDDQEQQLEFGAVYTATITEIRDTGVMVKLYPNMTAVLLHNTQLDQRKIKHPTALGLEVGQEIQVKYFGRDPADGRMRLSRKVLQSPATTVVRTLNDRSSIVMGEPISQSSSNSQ

hPNPase P140L = target: T2, hPNPase P140L (Homo sapiens, UniProt Q8TCS8 46-783, P140L)
T2 sequence: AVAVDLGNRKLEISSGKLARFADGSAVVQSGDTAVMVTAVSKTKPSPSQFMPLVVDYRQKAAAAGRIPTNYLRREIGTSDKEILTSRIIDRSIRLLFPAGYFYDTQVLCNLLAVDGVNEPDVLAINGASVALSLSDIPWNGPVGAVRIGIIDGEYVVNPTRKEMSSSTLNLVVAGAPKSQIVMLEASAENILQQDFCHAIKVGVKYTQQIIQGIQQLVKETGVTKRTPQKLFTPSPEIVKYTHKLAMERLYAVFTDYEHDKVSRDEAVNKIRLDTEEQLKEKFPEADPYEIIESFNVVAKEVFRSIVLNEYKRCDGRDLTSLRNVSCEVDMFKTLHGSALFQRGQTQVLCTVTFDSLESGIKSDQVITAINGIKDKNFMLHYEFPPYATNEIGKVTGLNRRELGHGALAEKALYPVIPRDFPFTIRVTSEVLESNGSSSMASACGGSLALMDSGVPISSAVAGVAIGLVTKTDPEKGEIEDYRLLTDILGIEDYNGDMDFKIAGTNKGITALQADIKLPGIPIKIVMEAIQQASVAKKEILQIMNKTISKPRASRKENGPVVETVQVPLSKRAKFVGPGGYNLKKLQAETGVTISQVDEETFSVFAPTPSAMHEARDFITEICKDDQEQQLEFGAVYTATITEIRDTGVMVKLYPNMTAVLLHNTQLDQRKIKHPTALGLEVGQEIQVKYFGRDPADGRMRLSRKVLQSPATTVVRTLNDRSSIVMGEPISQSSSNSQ

hPNPase E475G [2] = target: T3, hPNPase E475G (Homo sapiens, UniProt Q8TCS8 46-783, E475G)
T3 sequence: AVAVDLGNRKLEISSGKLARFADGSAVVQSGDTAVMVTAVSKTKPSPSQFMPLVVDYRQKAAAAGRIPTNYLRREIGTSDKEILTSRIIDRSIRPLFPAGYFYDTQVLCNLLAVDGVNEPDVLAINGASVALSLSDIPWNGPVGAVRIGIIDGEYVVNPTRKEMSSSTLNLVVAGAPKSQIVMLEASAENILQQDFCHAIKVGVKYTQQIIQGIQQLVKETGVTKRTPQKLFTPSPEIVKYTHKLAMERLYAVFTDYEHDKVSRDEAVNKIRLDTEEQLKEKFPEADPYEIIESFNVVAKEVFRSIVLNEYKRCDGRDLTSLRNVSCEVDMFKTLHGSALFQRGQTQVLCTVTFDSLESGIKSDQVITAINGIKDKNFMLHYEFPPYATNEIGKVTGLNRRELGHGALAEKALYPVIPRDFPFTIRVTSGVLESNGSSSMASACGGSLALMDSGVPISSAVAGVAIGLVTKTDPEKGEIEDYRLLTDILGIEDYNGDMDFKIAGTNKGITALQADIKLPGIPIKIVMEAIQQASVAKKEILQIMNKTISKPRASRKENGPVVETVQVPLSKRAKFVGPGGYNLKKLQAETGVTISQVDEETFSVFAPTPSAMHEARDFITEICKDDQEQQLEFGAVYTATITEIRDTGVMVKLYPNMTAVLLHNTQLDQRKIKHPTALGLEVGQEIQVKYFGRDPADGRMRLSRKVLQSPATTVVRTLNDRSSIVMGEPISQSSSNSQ

hPNPase Q387R [3] = target: T1, hPNPase Q387R; remark: listed apart in the source
hPNPase E475G [4] = target: T3, hPNPase E475G; remark: listed apart in the source

B1: DNA20 (ssDNA)
DNA: ACTGGACAAATACTCCGACG
hPNPase Q387R [1]
  binding result: no binding
hPNPase P140L
  binding result: no binding
hPNPase E475G [2]
  binding result: no binding

B2: RNA20 (ssRNA)
RNA: ACUGGACAAAUACUCCGACG
hPNPase Q387R [3]
  binding result: no binding
hPNPase E475G [4]
  binding result: no binding
